Patent publication US20250108119A1, “NOVEL STEROID PAYLOADS, STEROID LINKERS, ADCs CONTAINING AND USE THEREOF” (IMMUNEXT, INC., priority 2021, published 2025)

System: human PBMC
Experiment: Identification and quantification of released payload in human PBMC (MS)
Format: in vitro ADME
Conditions: 4h, second study
Procedure: In all the following experiments, human PBMC, isolated from 1 healthy donor per study, were treated with exemplary anti-VISTA glucocorticoid conjugates according to the invention to allow identification and quantification of the released payload.
In the present experiments, after incubating PBMC with glucocorticoid (GC) antibody drug conjugates (ADC) for 4h, cells were harvested and assessed for both FKBP5 transcription induction via quantitative real time PCR (qPCR) as well as assessed via mass spectrometry (MS) for released payload identification and quantification.
Isolated PBMCs were resuspended in RPMI 1640 containing 10% human AB serum, 10 mM Hepes, 1× Penicillin/Streptomycin/L-Glutamine (assay media).
PBMCs from 1 donor were washed 2× in PBS, and then resuspended at 1×10^7/mL in media. […]
Remaining cells for each treatment were dived into aliquots representing 50 million cells per aliquot (for metabolite quantification only one aliquot per condition was generated). […]
Media was removed from each cell pellet with the media then set aside at −80C until it could be assessed for the concentration of effluxed payload. […]
Briefly, pre-chilled 70% ACN (extraction buffer) was added to the PBMC pellets for extraction. […] was injected onto the LCMS (Luna C18 (2) column, Thermo Scientific Q Exactive Hybrid Quadrupole Orbitrap) and resulting masses assessed. […]

C[C@]12C=CC(=O)C=C1CC[C@@H]1[C@@H]2[C@@H](O)C[C@@]2(C)[C@H]1C[C@H]1O[C@@H](c3ccc(CC4CC5(C4)CC(NC(=O)[C@H](CCC(=O)O)NC(=O)CNC(=O)CBr)C5)cc3)O[C@]12C(=O)CO (stereo partly drawn) [INX V, (S)-4-(2-(2-bromoacetamido)acetamido)-5-((6-(4-((6aR,6bS,7S,8aS,8bS,10R,11aR,12aS,12bS)-7-hydroxy-8b-(2-hydroxyacetyl)-6a,8a-dimethyl-4-oxo-2,4,6a,6b,7,8,8a,8b,11a,12,12a,12b-dodecahydro-1H-naphtho[2′,1′:4,5]indeno[1,2-d][1,3]dioxol-10-yl)benzyl)spiro[3.3]heptan-2-yl)amino)-5-oxopentanoic acid]
released payload relative to INX P / INX231P (ng/ng): 235 x
